According to patent US20250152746A1, “BASE EDITING OF ANGPTL3 AND METHODS OF USING SAME FOR TREATMENT OF DISEASE” (Verve Therapeutics, Inc., priority 2020, published 2025):

B1: GA073: PCSK9 gRNA; protospacer GCTTACCTGTCTGTGGAAGC (SEQ ID NO: 67), splice donor of intron 4 (nucleic acid)
guide: GCTTACCTGTCTGTGGAAGCGTTTTAGAGCTAGAAATAGCAAGTTAAAATAAGGCTAGTCCGTTATCAACTTGAAAAAGTGGCACCGAGTCGGTGCTTTT
modifications: listed as RNA; modified_base 1: mod_base = OTHER; note = 2'-O-Methyl-guanosine phosphorothioate; modified_base 2: mod_base = OTHER; note = 2'-O-Methyl-cytidine phosphorothioate; modified_b
B2: GA081: PCSK9 gRNA for ABE8.8 splice site editing, Human/Cyno (nucleic acid)
guide: TTTCCAGGTCATCACAGTTGGTTTTAGAGCTAGAAATAGCAAGTTAAAATAAGGCTAGTCCGTTATCAACTTGAAAAAGTGGCACCGAGTCGGTGCTTTT
modifications: listed as RNA; modified_base 1: mod_base = OTHER; note = 2'-O-Methyl-uridine phosphorothioate; modified_base 2: mod_base = OTHER; modified_base
notes: PCSK9 gRNA for ABE8.8 splice site editing, Human/Cyno
B3: GA080: PCSK9 gRNA for ABE8.8 splice site editing, Human/Cyno (nucleic acid)
guide: CCTTTCCAGGTCATCACAGTGTTTTAGAGCTAGAAATAGCAAGTTAAAATAAGGCTAGTCCGTTATCAACTTGAAAAAGTGGCACCGAGTCGGTGCTTTT
modifications: 2'-O-methyl at 1, 2, other sugars and backbone not given here; further chemistry not fully specified
notes: as for B2
B4: GA072: PCSK9 gRNA for ABE8.8 splice site editing, Human/Cyno (nucleic acid)
guide: GGTGGCTCACCAGCTCCAGCGTTTTAGAGCTAGAAATAGCAAGTTAAAATAAGGCTAGTCCGTTATCAACTTGAAAAAGTGGCACCGAGTCGGTGCTTTT
modifications: 2'-O-methyl at 1, 2, other sugars, backbone and T or U not given here; further chemistry not fully specified
notes: as for B2
B5: GA087: PCSK9 gRNA for ABE8.8 splice site editing, Human/Cyno (nucleic acid)
guide: UCACCTGCTCCTGAGGGGCCGTTTTAGAGCTAGAAATAGCAAGTTAAAATAAGGCTAGTCCGTTATCAACTTGAAAAAGTGGCACCGAGTCGGTGCTTTT
modifications: 2'-O-methyl at 1, 2, other sugars and backbone not given here; further chemistry not fully specified
notes: as for B2
B6: GA088: PCSK9 gRNA for ABE8.8 splice site editing, Human/Cyno (nucleic acid)
guide: CCCAGGCTGCAGCTCCCACTGTTTTAGAGCTAGAAATAGCAAGTTAAAATAAGGCTAGTCCGTTATCAACTTGAAAAAGTGGCACCGAGTCGGTGCTTTT
modifications: 2'-O-methyl at 1, 2, other sugars and backbone not given here; further chemistry not fully specified
notes: as for B2
B7: GA077: PCSK9 gRNA for ABE8.8 splice site editing, Human/Cyno (nucleic acid)
guide: UCCCAGGCCTGGAGTTTATTGTTTTAGAGCTAGAAATAGCAAGTTAAAATAAGGCTAGTCCGTTATCAACTTGAAAAAGTGGCACCGAGTCGGTGCTTTT
modifications: 2'-O-methyl at 1, 2, other sugars and backbone not given here; further chemistry not fully specified
notes: as for B2
B8: GA074: PCSK9 gRNA; protospacer TGCTTACCTGTCTGTGGAAG (SEQ ID NO: 68), splice donor of intron 4 (nucleic acid)
guide: TGCTTACCTGTCTGTGGAAGGTTTTAGAGCTAGAAATAGCAAGTTAAAATAAGGCTAGTCCGTTATCAACTTGAAAAAGTGGCACCGAGTCGGTGCTTTT
modifications: listed as RNA; modified_base 1: mod_base = OTHER; note = 2'-O-Methyl-uridine phosphorothioate; modified_base 2: mod_base = OTHER; note = 2'-O-Methyl-guanosine phosphorothioate; modified_ba
B9: GA079: PCSK9 gRNA for ABE8.8 splice site editing, Human/Cyno (nucleic acid)
guide: CTTTCCAGGTCATCACAGTTGTTTTAGAGCTAGAAATAGCAAGTTAAAATAAGGCTAGTCCGTTATCAACTTGAAAAAGTGGCACCGAGTCGGTGCTTTT
modifications: listed as RNA; modified_base 1: mod_base = OTHER; note = 2'-O-Methyl-cytidine phosphorothioate; modified_base 2: mod_base = OTHER; note = 2'-O-Methyl-uridine phosphorothioate; modified_bas
notes: as for B2

Tested on: PCSK9 gene splice site
Format: cell-based, cynomolgus monkey
Settings: not given
Experimental: (§1) PCSK9 gRNAs were co-transfected with an equivalent amount of in vitro transcribed ABE8.8 mRNA MA002 (1:1 ratio by weight) into primary hepatocytes and processed as described in detailed methods. In one set of experiments, extracted genomic DNA was analyzed for base editing of the target splice site with next-generation sequencing of PCR amplicons generated around the target sites. Samples were prepared using the Nextera XT DNA library preparation kit (Illumina) according to the manufacturer's protocol. Briefly, two rounds of PCR were performed first to amplify the region of interest and second to add DNA sequences required for next generation sequencing and sample identification to the initial product. The final amplicon was sequenced on the Illumina MiSeq instrument according to the manufacturer's protocol.
(§2) Similarly, three gRNAs (GA098, GA099, GA100) were synthesized matching the 5′-[…]-3′ (SEQ ID NO: 15) (GA091) human protospacer sequence, as well as four gRNAs (GA067/GA101, GA102, GA103, GA347) matching the 5′-[…]-3′ (SEQ ID NO: 14) (GA067) cynomolgus protospacer sequence, but with more extensive chemical modifications of various kinds (Table 1). GA066 and GA095 contain the same chemical composition and modification pattern, as do GA067 and GA101 with one another. […] Each of the gRNAs described in Table 8, with an equivalent amount of in vitro transcribed ABE8.8 mRNA MA002 (1:1 ratio by weight), were co-transfected into primary human hepatocytes and primary cynomolgus hepatocytes via MessengerMax reagent, using various dilutions to assess for editing activity at different concentrations of test article. Three days after transfection, genomic DNA was harvested from the hepatocytes, and then assessed for base editing of the target splice site with next-generation sequencing.
(§3) Modifications and/or truncations to either the spacer or tracr portion of the gRNA was assessed by alteration of the GA066 spacer (5′-[…]-3′ (SEQ ID NO: 13)) (Table 12). […] Each of the gRNAs with an equivalent amount of in vitro transcribed ABE8.8 mRNA (1:1 ratio by weight) were co-transfected into primary human hepatocytes and primary cynomolgus hepatocytes and processed as described in detailed methods.
Lipid nanoparticles containing ABE8.8 mRNA and a gRNA matching the human/cynomolgus 5′-[…]-3′ (SEQ ID NO: 13) sequence (GA066) that targets the splice donor at the 5′ end of PCSK9 intron 1 were formulated at a 1:1 ratio by weight. The LNPs were administered to primary human hepatocytes and primary cynomolgus hepatocytes, using various dilutions to assess for editing activity at different concentrations of test article. LNP containing Cas9 mRNA and a gRNA matching a protospacer sequence in another gene, ANGPTL3, as a positive control was used for these experiments.
Plating, culturing, and transfection of primary hepatocytes. Primary human liver hepatocytes (PHH) and primary cynomolgus liver hepatocytes (PCH) from BioIVT were cultured per the manufacturer's protocol. Briefly, primary human hepatocytes and primary cyno hepatocytes were obtained as frozen aliquots from BioIVT.

| Molecule | Cynomolgous Primary Hepatocytes-splice site editing % 1250 ng/mL | Cynomolgous Primary Hepatocytes-splice site editing % 2500 ng/mL | Cynomolgous Primary Hepatocytes-splice site editing % 5000 ng/mL |
| --- | --- | --- | --- |
| B1 | 24.7% | 23.2% | 29.2% |
| B2 | 0.3% | 0.3% | 0.3% |
| B3 | 7.1% | 8.8% | 7.0% |
| B4 | 2.3% | 1.7% | 2.2% |
| B5 | 0.2% | 0.2% | 0.2% |
| B6 | 17.0% | 23.0% | 24.8% |
| B7 | 4.1% | 5.7% | 5.4% |
| B8 | 17.5% | 20.1% | 18.7% |
| B9 | 0.6% | 0.5% | 0.5% |

Tested on: ANGPTL3
Settings: phase I clinical trials; cited from earlier work

| Molecule | lipid lowering effect |
| --- | --- |
| evinacumab | significant lipid lowering effect |

Tested on: PCSK9 gene splice site
Format: cell-based, human
Settings: not given
Remark: another data set of the same source
Experimental: as §1, §2
as §3, with “methods. […]” for “methods.”

| Molecule | Human Primary Hepatocytes-splice site editing % 1250 ng/mL | Human Primary Hepatocytes-splice site editing % 2500 ng/mL | Human Primary Hepatocytes-splice site editing % 5000 ng/mL |
| --- | --- | --- | --- |
| B1 | 11.2% | 17.5% | 25.4% |
| B2 | 4.3% | 6.1% | 8.3% |
| B3 | 0.4% | 0.5% | 0.6% |
| B4 | 1.5% | 2.2% | 2.5% |
| B5 | 1.0% | 1.4% | 1.9% |
| B6 | 3.6% | 6.2% | 7.2% |
| B7 | 2.8% | 5.7% | 6.0% |
| B8 | 11.6% | 18.8% | 23.8% |
| B9 | 2.2% | 4.9% | 6.5% |

Same assay, conditions: ABE8.8 mRNA MA002

| Molecule | editing activities, ranking of guides |
| --- | --- |
| B1 | performing the best |
| B8 | performing the best |
